Measured values: PMC9445180

Molecular target: HTRA1^PD + 7-mer ABP (purified covalent complex of HTRA1^PD and biotin-DPMFKLV-phosphonate) (human) (UniProt Q92743)
Assay: SPR; His6-tagged HTRA proteins (about 200 RU) captured with the His-capture kit on a CM5 chip, Fab15H6.v4 as analyte, single-cycle kinetics, three-fold dilutions from 1 nM or 1 μM; absence of binding verified with 3 μM Fab; Biacore S200, 25 °C, HBS-EP; 1:1 Langmuir model

HTRA1^PD + 7-mer ABP (purified covalent complex of HTRA1^PD and biotin-DPMFKLV-phosphonate) (human), sequence (Q92743 161-379, one chain of several): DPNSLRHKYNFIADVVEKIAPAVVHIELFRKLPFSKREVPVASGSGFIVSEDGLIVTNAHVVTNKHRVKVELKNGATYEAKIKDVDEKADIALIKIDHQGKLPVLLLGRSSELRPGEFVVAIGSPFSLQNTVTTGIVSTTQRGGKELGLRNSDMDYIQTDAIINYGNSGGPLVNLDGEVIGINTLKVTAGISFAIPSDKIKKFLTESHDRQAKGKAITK

B1: Fab15H6.v4 (Fab, V domains shown)
VH: EVQLVQSGAEVKKPGASVKVSCKASGYKFTDSEMHWVRQAPGQGLEWIGGVDPETEGAAYNQKFKGRATITRDTSTSTAYLELSSLRSEDTAVYYCTRGYDYDYALDYWGQGTLVTVSS
VL: DIQMTQSPSSLSASVGDRVTITCRASSSVEFIHWYQQKPGKAPKPLISATSNLASGVPSRFSGSGSGTDFTLTISSLQPEDFATYYCQQWSSAPWTFGQGTKVEIK
A Kd of 0.21 nM was found for B1 in this work.
